To fix the notation:
B1: TPD52L1 (parent)
chain: ISKKFGDMSYSIRHSISMPAMRNS
B2: PTPN9 (parent)
chain: LKGAFPARLKKVLIVGAPIWFRVP
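Further: lentivirally expressed fusions sorted by FACS into six bins by GFP to DsRed ratio, PSI derived from sequencing read proportions per bin multiplied by bin number.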

The variants in the first data set derive from B1. Kind of data set: protein stability index of a GFP-peptide fusion (GPS, HEK-293T) (PSI 1-6); higher = more stable. Conditions: c terminus: a fixed tail appended.
As for ISKKFGDMSYSIRHSISGPAMRNS [M18G], the protein stability index came out at 2.42.
Same read-out and setting: as for ISKKFGDNSYSIRHSISMPAMRNS [M8N], the figure is 2.88; as for IFKKFGDMSYSIRHSISMPAMRNS [S2F], 1.74.
Same read-out and setting: next, ISKDFGDMSYSIRHSISMPAMRNS [K4D]: 2.47; ISKKFGDMDYSIRHSISMPAMRNS [S9D]: 2.36.
With ISKKFGDMSYSIRHDISMPAMRNS [S15D], the protein stability index came to 1.92.

Variants of B2 are the subject of a further data set. Described as above. The settings on record: c terminus: a fixed tail appended.
Take LKGAFPARLKKVLIVGAPIWFRPP [V23P]: the protein stability index was 2.07.
With LKGAFPARLKKVLIVGAPIWFRDP [V23D], the protein stability index came to 2.11.
On the same count and under the same terms, next, LKSAFPARLKKVLIVGAPIWFRVP [G3S]: 3.35.
On to LKKAFPARLKKVLIVGAPIWFRVP [G3K], for which the protein stability index is 3.39.
For the variant LKDAFPARLKKVLIVGAPIWFRVP [G3D], the protein stability index was determined as 3.16.
The same measure, in the same setting: next, LKAAFPARLKKVLIVGAPIWFRVP [G3A]: 2.89.
In the case of IKGAFPARLKKVLIVGAPIWFRVP [L1I], the protein stability index was 4.73.
On to VKGAFPARLKKVLIVGAPIWFRVP [L1V], for which the protein stability index is 3.26.
Same read-out and setting: next, SKGAFPARLKKVLIVGAPIWFRVP [L1S]: 4.61.
Turning to WKGAFPARLKKVLIVGAPIWFRVP [L1W], the protein stability index was 2.11.
The same measure, in the same setting: next, KKGAFPARLKKVLIVGAPIWFRVP [L1K]: 2.78; CKGAFPARLKKVLIVGAPIWFRVP [L1C]: 3.38; LKGAFPARLKKVLIVGATIWFRVP [P18T]: 1.99.
Same read-out and setting: next, LKGAFPARLKKVLIVGAWIWFRVP [P18W]: 4.58.
Same read-out and setting: next, LKGAFPARLKKVLIVGAGIWFRVP [P18G]: 4.24.
As for LKGAFPARLKKVLIVGACIWFRVP [P18C], the protein stability index is 2.33.
Still for that read-out and setting: as for LKGAFPARLKKGLIVGAPIWFRVP [V12G], the figure is 1.27; as for LKGAFPARLKKRLIVGAPIWFRVP [V12R], 2.3.
Still for that read-out and setting: next, LKGAFPARLKKNLIVGAPIWFRVP [V12N]: 3.54.
With LKGAFPARLKKALIVGAPIWFRVP [V12A], the protein stability index was determined as 3.43.
The same measure, in the same setting: as for LKGAFPARLKKTLIVGAPIWFRVP [V12T], the figure is 2.61.
With LKGAFPARLKKVLIVRAPIWFRVP [G16R], the protein stability index turned out to be 3.43.
On the same count and under the same terms, next, LKGAFPARLKKVLIVPAPIWFRVP [G16P]: 5.02; LKGAFPARLKKVLIVWAPIWFRVP [G16W]: 1.74; LKGAFPARLKKVLIVNAPIWFRVP [G16N]: 2.29.
On the same count and under the same terms, as for LKGAFPARLKKVLIVFAPIWFRVP [G16F], the figure is 2.2.
The same measure, in the same setting: next, LKGAFPARLKKVLIVIAPIWFRVP [G16I]: 1.57; LKGAFPARLSKVLIVGAPIWFRVP [K10S]: 3.47; LKGAFPARLYKVLIVGAPIWFRVP [K10Y]: 2.2.
For LKGAFPARLQKVLIVGAPIWFRVP [K10Q], the protein stability index worked out at 2.94.
Same read-out and setting: as for LKGAFPARLKKVLIVGAPHWFRVP [I19H], the figure is 1.
Still for that read-out and setting: next, LKGAFPARLKKVLIVGAPSWFRVP [I19S]: 1.95; LKGAFPARLKKVLIVGAPEWFRVP [I19E]: 2.64; LKGAFPARLKKVLIVGAPTWFRVP [I19T]: 4.11.
In the case of LKGAFPARLKKVLIVGKPIWFRVP [A17K], the protein stability index amounted to 2.28.
As to LKGAFPARLKKVLIVGNPIWFRVP [A17N], the protein stability index was 2.61.
On to LKGAFPARLKKVLIVGTPIWFRVP [A17T], for which the protein stability index turned out to be 4.8.
Still for that read-out and setting: as for LKGAFPARLKKVLIVGLPIWFRVP [A17L], the figure is 3.42; as for LKGAFPARLKKVLIVGFPIWFRVP [A17F], 2.16; as for LKGAFPARLKKVIIVGAPIWFRVP [L13I], 3.11.
LKGAFPARLKKVFIVGAPIWFRVP [L13F]: the protein stability index was determined as 2.82.
Regarding LKGAFPARLKKVDIVGAPIWFRVP [L13D], the protein stability index amounted to 1.01.
On to LKGAFPARLKKVPIVGAPIWFRVP [L13P], for which the protein stability index worked out at 2.55.
Regarding LKGAFPARLKKVNIVGAPIWFRVP [L13N], the protein stability index was determined as 1.7.
Same read-out and setting: as for LKGFFPARLKKVLIVGAPIWFRVP [A4F], the figure is 2.49; as for LKGIFPARLKKVLIVGAPIWFRVP [A4I], 3.45; as for LKGDFPARLKKVLIVGAPIWFRVP [A4D], 3.24.
Consider LKGLFPARLKKVLIVGAPIWFRVP [A4L], for which the protein stability index is 3.88.
Take LKGQFPARLKKVLIVGAPIWFRVP [A4Q]: the protein stability index was determined as 2.61.
With LKGAFPARLKHVLIVGAPIWFRVP [K11H], the protein stability index came to 1.99.
The same measure, in the same setting: as for LKGAFPARLKFVLIVGAPIWFRVP [K11F], the figure is 4.03.
Turning to LKGAFPARLKGVLIVGAPIWFRVP [K11G], the protein stability index was determined as 1.84.
LKGAFPARLKEVLIVGAPIWFRVP [K11E]: the protein stability index was 2.73.
Same read-out and setting: next, LKGAFPARLKIVLIVGAPIWFRVP [K11I]: 2.21; LKGAFPARLKKVLLVGAPIWFRVP [I14L]: 2.73.
Regarding LKGAFPARLKKVLDVGAPIWFRVP [I14D], the protein stability index came out at 1.46.
Same read-out and setting: as for LKGAFPARLKKVLAVGAPIWFRVP [I14A], the figure is 4.13; as for LKGAFPARLKKVLNVGAPIWFRVP [I14N], 1.37; as for LKGAFPARLKKVLRVGAPIWFRVP [I14R], 2.87.
Still for that read-out and setting: next, LKGAFPARLKKVLEVGAPIWFRVP [I14E]: 1.09.
With LKGAFPARLKKVLPVGAPIWFRVP [I14P], the protein stability index turned out to be 2.98.
Still for that read-out and setting: next, LKGAFPARLKKVLITGAPIWFRVP [V15T]: 2.46; LKGAFPARLKKVLIYGAPIWFRVP [V15Y]: 2.25.
On the same count and under the same terms, next, LKGAFPARLKKVLIDGAPIWFRVP [V15D]: 2.44; LKGAFPARLKKVLIQGAPIWFRVP [V15Q]: 1.55; LKGAFPARLKKVLISGAPIWFRVP [V15S]: 1.37.
On the same count and under the same terms, next, LKGAFPARLKKVLIHGAPIWFRVP [V15H]: 2.46.
For the variant LKGAFPARLKKVLIFGAPIWFRVP [V15F], the protein stability index came to 2.48.
On to LKGAFPARLKKVLIWGAPIWFRVP [V15W], for which the protein stability index was 1.27.
Same read-out and setting: next, LKGAFPARLKKVLIKGAPIWFRVP [V15K]: 1.37; LKGAFPARVKKVLIVGAPIWFRVP [L9V]: 4.71.
As to LKGAFPARFKKVLIVGAPIWFRVP [L9F], the protein stability index is 1.64.
LKGAFPARKKKVLIVGAPIWFRVP [L9K]: the protein stability index was 2.57.
With LKGAFPARLKKVLIVGAPIFFRVP [W20F], the protein stability index was 2.45.
On to LKGAFPARLKKVLIVGAPISFRVP [W20S], for which the protein stability index amounted to 2.41.
Same read-out and setting: next, LKGAFPARLKKVLIVGAPIKFRVP [W20K]: 2.56; LKGAFPARLKKVLIVGAPIEFRVP [W20E]: 3.74.
The same measure, in the same setting: next, LKGAFPARLKKVLIVGAPIHFRVP [W20H]: 4.59; LKGAFPARLKKVLIVGAPIWLRVP [F21L]: 1.57.
Same read-out and setting: next, LKGAFPARLKKVLIVGAPIWNRVP [F21N]: 2.65; LKGAFPARLKKVLIVGAPIWRRVP [F21R]: 2.39.
In the case of LAGAFPARLKKVLIVGAPIWFRVP [K2A], the protein stability index came out at 2.1.
Same read-out and setting: as for LLGAFPARLKKVLIVGAPIWFRVP [K2L], the figure is 3.37; as for LNGAFPARLKKVLIVGAPIWFRVP [K2N], 2.18.
In the case of LRGAFPARLKKVLIVGAPIWFRVP [K2R], the protein stability index stood at 3.96.
As to LFGAFPARLKKVLIVGAPIWFRVP [K2F], the protein stability index came to 1.26.
On the same count and under the same terms, as for LKGAFPVRLKKVLIVGAPIWFRVP [A7V], the figure is 2.57.
As for LKGAFPFRLKKVLIVGAPIWFRVP [A7F], the protein stability index turned out to be 3.16.

The values above are taken from the supplement of paper PMC10567573.
